# Measured values published in article PMC12394075.
# Biological target: HA-GSGS-tagged rat mGluR2 with TAG at Ala548 (CRD linker sensor) (rat) (UniProt P31421)
# Heterotrimeric Gi1, sequence (P63096 whole entry, looked up, one chain of several): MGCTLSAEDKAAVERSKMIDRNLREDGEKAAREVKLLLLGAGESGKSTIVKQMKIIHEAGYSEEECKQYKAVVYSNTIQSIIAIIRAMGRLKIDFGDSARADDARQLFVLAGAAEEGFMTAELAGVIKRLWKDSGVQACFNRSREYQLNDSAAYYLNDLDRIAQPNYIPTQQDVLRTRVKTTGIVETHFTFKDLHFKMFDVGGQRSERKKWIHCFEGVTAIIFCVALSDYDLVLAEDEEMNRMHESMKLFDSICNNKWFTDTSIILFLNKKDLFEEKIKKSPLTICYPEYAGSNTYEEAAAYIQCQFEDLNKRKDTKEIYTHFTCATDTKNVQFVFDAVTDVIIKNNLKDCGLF
substance,measurement,value
Heterotrimeric Gi1 (from UniProt P63096 1-354) (complex),smFRET of the CRD sensor with 10 mM glutamate and 4–5 µM Gi1 heterotrimer: occupancy of the high-FRET state (E ~ 0.85),20%
